Source: patent US20040142357A1 (BETH ISRAEL DEACONESS MEDICAL CENTER, published 2004)
Blank lines part the entries; values can stand above or below the binder they belong to.

What was measured:
[1] = target: telomerase of HT1080 cells (telomerase-containing fraction, or cellular telomerase in stable HT1080 lines) (human, UniProt O14746 1-1132, limits assumed); test: cell-based or functional assay
[2] = target: T1, GST (glutathione-S-transferase alone, on glutathione beads) (UniProt P08515 1-218 = GST); test: GST pulldown from HeLa lysates, immunoblot with anti-GFP
T1 construct: Control protein; also called GST tag
Method: (§1) GST pulldown, immunoprecipitation and immunoblotting analysis were performed as described (Lu et al., 1999; Shen et al., 1998). Briefly, relevant proteins were expressed in HeLa or HT1080 cells by transient transfection, or translated in vitro using the TNT coupled transcription/translation kit (Promega) in the presence of [³⁵S]-Met, followed by lysis or dilution in a buffer containing 50 mM HEPES, pH 7.5, 150 mM NaCl, 100 mM NaF, 1 mM sodium orthovanadate, 10% glycerol, 1% Triton X100, 10 μg/ml aprotinin, 10 μg/ml leupeptin, 50 μg/ml phenylmethylsulfonyl fluoride and 1 mM DTT. The cellular supernatants were incubated with 1 μM GST or GST fusion proteins for 1 hr at 4° C. and 15 μl of glutathione agarose beads were then added, followed by further incubation for 2 h at 4° C. The precipitated proteins were washed 4 times in the same buffer and subjected to immunoblotting analysis. Other antibodies used for immunoprecipitation and immunoblotting analysis include anti-Pin2/TRF1 (Shen et al., 1997) and anti-hTERT antibodies (Novus). Membranes containing RNAs isolated from different human tissues (Clontech) were hybridized to the C-terminal coding sequence of PinX1 and then stripped, followed by reprobing with the house-keeping gene GAPDH for loading control.
(§2) To map the region in PinX1 that interacts with Pin2, we expressed different PinX1 fragments in HeLa cells as GFP fusion proteins (FIG. 3E), and then subjected them to GST pulldown experiments with GST-Pin2.

GST-Pin2 = target: T2, GST-Pin2 (human, UniProt P54274 2-439); test: as above
T2 construct: Produced as described in Shen et al., 1997; also called GST-Pin2 beads (Pin2); not shown: glutathione-S-transferase (GST) tag
T2 sequence: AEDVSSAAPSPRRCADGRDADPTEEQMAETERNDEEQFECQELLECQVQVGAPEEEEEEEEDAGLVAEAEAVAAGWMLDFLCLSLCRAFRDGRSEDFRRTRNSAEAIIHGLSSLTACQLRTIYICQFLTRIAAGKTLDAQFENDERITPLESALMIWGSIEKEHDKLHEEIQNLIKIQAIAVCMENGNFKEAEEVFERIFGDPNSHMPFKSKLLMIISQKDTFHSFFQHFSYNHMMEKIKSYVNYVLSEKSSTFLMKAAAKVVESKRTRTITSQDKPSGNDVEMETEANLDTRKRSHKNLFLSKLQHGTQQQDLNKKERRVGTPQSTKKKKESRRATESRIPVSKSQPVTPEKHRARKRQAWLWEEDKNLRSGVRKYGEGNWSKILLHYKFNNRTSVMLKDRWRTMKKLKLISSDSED
Method: as §1, §2

[3] = target: T1, GST (glutathione-S-transferase alone, …); test: GST pulldown from HeLa lysates, immunoblot with anti-HA
Method: as §1, with “control. […]” for “control.”

T1 sequence (P08515 whole entry): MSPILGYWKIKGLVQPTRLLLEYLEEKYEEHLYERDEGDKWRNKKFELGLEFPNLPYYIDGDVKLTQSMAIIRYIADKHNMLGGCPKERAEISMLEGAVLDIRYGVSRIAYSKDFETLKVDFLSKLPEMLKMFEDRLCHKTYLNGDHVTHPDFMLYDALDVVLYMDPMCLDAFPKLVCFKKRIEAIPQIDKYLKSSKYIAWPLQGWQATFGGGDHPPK
Sequence of telomerase of HT1080 cells (telomerase-containing fraction, or cellular telomerase in stable HT1080 lines) (O14746 whole entry): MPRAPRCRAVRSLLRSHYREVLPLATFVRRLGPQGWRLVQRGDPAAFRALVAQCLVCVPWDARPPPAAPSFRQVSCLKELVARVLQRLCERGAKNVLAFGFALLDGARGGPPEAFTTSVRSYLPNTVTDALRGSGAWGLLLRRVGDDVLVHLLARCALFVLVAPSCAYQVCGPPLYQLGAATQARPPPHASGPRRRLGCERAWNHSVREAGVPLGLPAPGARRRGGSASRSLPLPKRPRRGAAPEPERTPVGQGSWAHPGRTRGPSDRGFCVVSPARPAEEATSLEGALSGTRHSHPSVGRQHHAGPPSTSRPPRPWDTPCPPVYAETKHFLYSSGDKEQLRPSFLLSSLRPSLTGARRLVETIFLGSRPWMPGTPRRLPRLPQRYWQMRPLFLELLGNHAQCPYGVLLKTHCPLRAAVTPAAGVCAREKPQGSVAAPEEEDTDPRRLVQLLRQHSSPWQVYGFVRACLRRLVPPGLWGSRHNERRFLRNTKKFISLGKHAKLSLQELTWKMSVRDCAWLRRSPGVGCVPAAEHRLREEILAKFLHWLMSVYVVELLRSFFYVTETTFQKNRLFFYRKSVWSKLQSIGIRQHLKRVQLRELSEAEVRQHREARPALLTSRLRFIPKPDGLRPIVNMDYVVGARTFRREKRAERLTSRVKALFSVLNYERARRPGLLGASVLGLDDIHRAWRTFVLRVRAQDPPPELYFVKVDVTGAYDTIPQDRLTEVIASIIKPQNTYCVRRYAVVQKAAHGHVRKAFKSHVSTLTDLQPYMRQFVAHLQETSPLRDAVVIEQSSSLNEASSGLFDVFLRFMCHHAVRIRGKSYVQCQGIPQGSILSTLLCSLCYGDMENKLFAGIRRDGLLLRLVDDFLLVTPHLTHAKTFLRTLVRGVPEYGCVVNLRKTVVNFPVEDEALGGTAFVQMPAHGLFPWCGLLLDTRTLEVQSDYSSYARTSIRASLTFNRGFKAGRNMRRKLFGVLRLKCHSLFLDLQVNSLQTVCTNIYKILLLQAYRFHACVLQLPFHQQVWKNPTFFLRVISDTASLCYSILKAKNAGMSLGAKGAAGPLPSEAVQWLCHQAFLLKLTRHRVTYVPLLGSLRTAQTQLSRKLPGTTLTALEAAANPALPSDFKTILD

B5: GFP-PinX1 (full length PinX1 as a GFP fusion protein) (other)
chain: MSMLAERRRKQKWAVDPQNTAWSNDDSKFGQRMLEKMGWSKGKGLGAQEQGATDHIKVQVKNNHLGLGATINNEDNWIAHQDDFNQLLAELNTCHGQETTDSSDKKEKKSFSLEEKSKISKNRVHYMKFTKGKDLSSRSKTDLDCIFGKRQSKKTPEGDASPSTPEENETTTTSAFTIQEYFAKPVAALKNKPQVPVPGSDISETQVERKRGKKRNKEATGKDVESYLQPKAKRHTEGKPERAEAQERVAKKKCAPAEKQLRGPCWDQSSKASAQDAGDHVQPPEGRDFTLKPKKRRGKKKLQKPVEIAEDATLEETLVKKKKKKDSK
notes: Expressed in HeLa cells; not shown: GFP fusion partner
binding result [2]: no binding (tested: 1 µM)

B6: HA-PinX1 (PinX1 with an N-terminal HA epitope tag) (other, not shown: small tags and cut ends)
chain: B5 chain
notes: Expressed in HeLa or HT1080 cells; also called transfected PinX1 protein; 50 kDa HA-PinX1 protein
fold decrease in telomerase activity in stable HT1080 cells (TRAP assay) [1]: ~5 fold
binding result [3]: no binding (tested: 1 µM)

B7: GFP fusion of the PinX1 C-terminal 142-328 amino acid fragment (other)
chain: DLDCIFGKRQSKKTPEGDASPSTPEENETTTTSAFTIQEYFAKPVAALKNKPQVPVPGSDISETQVERKRGKKRNKEATGKDVESYLQPKAKRHTEGKPERAEAQERVAKKKCAPAEKQLRGPCWDQSSKASAQDAGDHVQPPEGRDFTLKPKKRRGKKKLQKPVEIAEDATLEETLVKKKKKKDSK
notes: as for B5
binding result [2]: no binding (tested: 1 µM)

Second part, the binder after the results:

IC50 of inhibition of telomerase activity in vitro (TRAP assay) [1]: ~50 nM
B1: GST-PinX1-C (GST fusion of the C-terminal 74 amino acid fragment of PinX1, the telomerase inhibitory domain TID) (other, not shown: a dimerising Fc or GST)
chain: CAPAEKQLRGPCWDQSSKASAQDAGDHVQPPEGRDFTLKPKKRRGKKKLQKPVEIAEDATLEETLVKKKKKKDSK

binding result [2]: no binding (tested: 1 µM)
B2: GFP fusion of the PinX1 254-328 amino acid fragment (other)
chain: B1 chain
notes: Expressed in HeLa cells; also called GFP-PinX1-C; C-terminal 74 amino acid fragment; not shown: GFP fusion partner

binding result (GST-Pin2): no binding (tested: 1 µM)
binding result [2]: no binding (tested: 1 µM)
B3: GFP fusion of the N-terminal 142 amino acid fragment of PinX1 (other)
chain: MSMLAERRRKQKWAVDPQNTAWSNDDSKFGQRMLEKMGWSKGKGLGAQEQGATDHIKVQVKNNHLGLGATINNEDNWIAHQDDFNQLLAELNTCHGQETTDSSDKKEKKSFSLEEKSKISKNRVHYMKFTKGKDLSSRSKTD
notes: Expressed in HeLa cells; also called GFP-PinX1-N; PinX1-N; not shown: GFP fusion partner

IC50 of inhibition of telomerase activity in vitro (TRAP assay) [1]: ~50 nM
B4: GST-PinX1 (N-terminal GST fusion of full length PinX1) (other, not shown: a dimerising Fc or GST)
chain: B5 chain
